Test results reported in patent US20120237948.

Target: MMP13-undigested human type II collagen (UniProt P02458)
Sequence (P02458 182-1241): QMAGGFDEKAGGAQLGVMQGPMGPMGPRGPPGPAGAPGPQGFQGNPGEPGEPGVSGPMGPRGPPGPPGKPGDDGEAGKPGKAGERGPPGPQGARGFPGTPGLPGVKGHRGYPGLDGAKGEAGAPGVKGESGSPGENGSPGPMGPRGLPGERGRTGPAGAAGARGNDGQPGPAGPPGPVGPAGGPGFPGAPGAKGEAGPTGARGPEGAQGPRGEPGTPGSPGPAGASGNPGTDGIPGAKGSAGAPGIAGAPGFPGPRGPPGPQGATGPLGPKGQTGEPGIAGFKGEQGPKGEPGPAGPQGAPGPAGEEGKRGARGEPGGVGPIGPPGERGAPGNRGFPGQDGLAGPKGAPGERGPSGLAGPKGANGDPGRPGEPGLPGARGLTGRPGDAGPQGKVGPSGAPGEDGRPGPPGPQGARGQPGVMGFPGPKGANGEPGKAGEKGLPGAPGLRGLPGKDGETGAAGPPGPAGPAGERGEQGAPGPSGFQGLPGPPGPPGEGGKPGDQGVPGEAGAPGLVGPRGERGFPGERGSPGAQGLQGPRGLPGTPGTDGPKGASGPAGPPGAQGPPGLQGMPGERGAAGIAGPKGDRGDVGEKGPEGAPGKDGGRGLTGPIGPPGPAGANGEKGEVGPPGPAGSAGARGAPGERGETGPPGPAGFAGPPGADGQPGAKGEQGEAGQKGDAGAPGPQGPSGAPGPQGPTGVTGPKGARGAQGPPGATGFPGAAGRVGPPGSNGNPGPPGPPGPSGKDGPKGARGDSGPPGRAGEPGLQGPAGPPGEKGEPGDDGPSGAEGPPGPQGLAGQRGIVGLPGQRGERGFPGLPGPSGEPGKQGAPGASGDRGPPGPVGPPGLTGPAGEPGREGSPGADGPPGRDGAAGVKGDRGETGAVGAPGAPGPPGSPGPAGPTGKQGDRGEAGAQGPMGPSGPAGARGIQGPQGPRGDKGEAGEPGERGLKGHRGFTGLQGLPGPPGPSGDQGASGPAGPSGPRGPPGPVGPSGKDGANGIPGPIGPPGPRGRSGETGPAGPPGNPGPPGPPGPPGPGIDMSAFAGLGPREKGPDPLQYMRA

Substance: activated human MMP13
- amount of the collagen neoepitope in the enzyme-reaction buffer (sandwich ELISA of Example 4): the measurements of the neoepitope increased in a manner dependent on the dose of MMP13 added
